Series [1] has as its target T1, Tetracycline repressor protein (TetR) (UniProt P04483 P04483:1-207). The experiment in a line: flow; 50 mM Tris pH 8.0, 50 mM KCl, 5 mM MgCl2, room temperature; repression 91% cell-free, 81% yeast. The settings on record: tags: N-terminal T7 tag, C-terminal His6 (pET24a); chain copies: 2 (inferred, TetR dimer); label: 3' fluorescein; stem-loop. As for the experimental part: (§1) Quantitative affinity measurements of aptamer interactions with TetR were performed as described previously. Brodsky et al, “A microbead-based system for identifying and characterizing RNA-protein interactions by flow cytometry” Mol Cell Proteomics 1:922-929 (2002); and Warren et al, “A novel binding assay to assess specificity of monoclonal antibodies” J Immunol Methods 305:33-38 (2005). Dynabeads TALON® (Invitrogen) (1 μL) were washed with Affinity Binding Buffer (ABB) (BB+10 μg/mL BSA) and centrifuged at 250×g for 2 mins. Beads were resuspended in ABB and incubated with 60 μg of purified His₆-tagged TetR for 1 h at room temperature. TetR-coated beads were washed twice and resuspended in ABB. Beads were counted by microscopy, and 70,000 beads were placed per well in a 96-well microplate. Fluorescein-labeled RNA in ABB was added to the beads. […] The median fluorescence intensities of the samples were plotted against RNA or DNA concentration using GraphPad Prism® 5 (GraphPad Software, Inc.).
(§2) This example presents a data summary of the various constructs tested for TetR-aptamer binding, cell-free translation, and yeast in vivo expression experiments. Translational repression is reported as the luminescence intensity of the uninduced condition relative to the induced condition. The binding of RNA aptamers to TetR was measured by flow cytometry. […]

Series [2] addresses T1, Tetracycline repressor protein (TetR). The experiment in a line: flow; binding listed as NS; no translation repression. The settings on record: tags: N-terminal T7 tag, C-terminal His6 (pET24a); chain copies: 2 (inferred, TetR dimer); label: 3' fluorescein. As for the experimental part: as §1, §2
The target is the same in series [3]. In words: flow; IRE does not bind TetR with high affinity; no translation repression. The settings on record: tags: N-terminal T7 tag, C-terminal His6 (pET24a); chain copies: 2 (inferred, TetR dimer); hairpin. As for the experimental part: Quantitative affinity measurements of aptamer interactions with TetR were performed as described previously. Brodsky et al, “A microbead-based system for identifying and characterizing RNA-protein interactions by flow cytometry” Mol Cell Proteomics 1:922-929 (2002); and Warren et al, “A novel binding assay to assess specificity of monoclonal antibodies” J Immunol Methods 305:33-38 (2005). Dynabeads TALON® (Invitrogen) (1 μL) were washed with Affinity Binding Buffer (ABB) (BB+10 μg/mL BSA) and centrifuged at 250×g for 2 mins. Beads were resuspended in ABB and incubated with 60 μg of purified His₆-tagged TetR for 1 h at room temperature. TetR-coated beads were washed twice and resuspended in ABB. Beads were counted by microscopy, and 70,000 beads were placed per well in a 96-well microplate. Fluorescein-labeled RNA in ABB was added to the beads. Nonspecific RNA interactions were reduced by adding 10 μg/mL yeast tRNA. The binding reaction proceeded with moderate shaking for 4 h at room temperature. […] The median fluorescence intensities of the samples were plotted against RNA or DNA concentration using GraphPad Prism® 5 (GraphPad Software, Inc.).
Several aptamers, but not the iron-responsive element, bind TetR with high affinity. […] Reporter expression was measured in a rabbit reticulocyte cell-free system or in S. cerevisiae in the presence and absence of the inducer aTc.

The target is the same in series [4]. The experiment in a line: flow; 50 mM Tris pH 8.0, 50 mM KCl, 5 mM MgCl2, room temperature; no significant translation repression. The conditions noted are these: tags: N-terminal T7 tag, C-terminal His6 (pET24a); chain copies: 2 (inferred, TetR dimer); label: 3' fluorescein. As for the experimental part: as §1, §2
Series [5] has the same target. In words: flow; 50 mM Tris pH 8.0, 50 mM KCl, 5 mM MgCl2, room temperature; repression NS cell-free, 9% yeast. The settings on record: tags: N-terminal T7 tag, C-terminal His6 (pET24a); chain copies: 2 (inferred, TetR dimer); label: 3' fluorescein. On the procedure: as §1, §2
Series [6] shares this target. In words: flow; 50 mM Tris pH 8.0, 50 mM KCl, 5 mM MgCl2, room temperature; repression 56% cell-free, 75% yeast. The conditions noted are these: tags: N-terminal T7 tag, C-terminal His6 (pET24a); chain copies: 2 (inferred, TetR dimer); label: 3' fluorescein. On the procedure:
as §1, §2

Residue numbers refer to the chain shown, from its start.

T1 sequence (P04483 whole entry, one chain of several): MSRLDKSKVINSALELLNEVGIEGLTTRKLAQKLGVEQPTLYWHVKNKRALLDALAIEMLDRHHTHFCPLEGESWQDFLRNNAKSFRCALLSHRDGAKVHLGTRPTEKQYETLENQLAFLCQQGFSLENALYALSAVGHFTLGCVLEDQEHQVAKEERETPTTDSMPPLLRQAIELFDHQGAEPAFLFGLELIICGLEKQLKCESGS

B1: 5-1.2 (ssRNA)
RNA: GGAUCCAGGCAGAGAAAGGUCGAUACGGACGGAAUGUGAUGGCCUGGAUCC
In general, Kd refers to the constant that tells how readily two partners part at equilibrium. Turning to B1, in series [1], binding was characterised by a dissociation constant (Kd) of 1.6 nM. In other words, the single-digit nanomolar range.

B2: 5-1.2m2 (ssRNA)
RNA: B1 RNA with A13U, A15U
In the case of B2, the binding result in series [2] is “no binding”.
In the case of CUUAAGCUUCAACAGUGCUUGAACUUAAG (ssRNA) [Iron Responsive Element (IRE)], the binding result in series [3] is reported as “no binding”.

B3: 5-29.13a (ssRNA)
RNA: GGGAGCUCAGAAUAAACGCUCAACUUGCUGCAGAGGGUCGAGAAUAUGUGUGACACUGCGUCGACGGGUUAAGUUCGACAUCAGGCCCGGAUCCGGC
Molecule B3 came in with a Kd in series [4] of 2.77 nM. That is a single-digit nanomolar value.

B4: 5-18.13 (ssRNA)
RNA: GGGAGCUGAGAAUAAACGCUCAAUAGGGAGAGAACUGUGUCAGAAUGUAGUGAACCAGACACGGAGUGGAGUAUUCGACAUCAGGCCCGGAUCCGGC
In series [5], B4 displayed a Kd of 0.45 nM. This lies in the sub-nanomolar range.

B5: 5-1.13 (ssRNA)
RNA: GGGAGCUCAGAAUAAACGCUCAACUCCUGUAGUGAAGGCAGAGAAAGGUCGAUACGGACGGAAUGUGAUGGCCUUCGACAUCAGGCCCGGAUCCGGC
B5 yielded a Kd in series [6] of 0.37 nM.

B6: 5-14.7b (ssRNA)
RNA: GGGAGCUGAGAAUAAACGCUCAACAGGAAACAGCAAGACAAACGAUGGGGAGCGUAAGACUGCGAGUGUCGGAUUCGACAUCAGGCCCGGAUCCGGC
In series [4], B6 came in with a Kd of 1.44 nM.

(Values after patent US20110245326, “Post-Transcriptional Regulation Of RNA-Related Processes Using Encoded Protein-Binding RNA Aptamers” (published 2011).)
